Measured values as given in paper PMC9504416, “Functional Characterization of an Arabidopsis Profilin Protein as a Molecular Chaperone under Heat Shock Stress” (Molecules, 2022).

Target: the molecule itself
Experiment: native gel or EMSA; 10% native PAGE with silver staining; concentration-dependent aliquots of recombinant protein, incubated at 25 °C for 30 min and centrifuged at 13,000 x g for 15 min

B1: Arabidopsis thaliana profilin-2 (AtPFN2), recombinant (natural protein, UniProt Q42418 1-131, looked up)
chain: MSWQSYVDDHLMCEVEGNHLTHAAIFGQDGSVWAQSSAFPQLKPAEIAGINKDFEEAGHLAPTGLFLGGEKYMVVQGEAGAVIRGKKGPGGVTIKKTTQALVFGIYDEPMTGGQCNLVVERLGDYLIESGL
notes: Profilin-2 (AtPFN2) of Arabidopsis thaliana, amplified by PCR from an A. thaliana cDNA library; single band of 14 kDa on SDS-PAGE; Homo-oligomer of various sizes; The vector pET28(a) probably adds the His tag; no removal of the tag is told; also called Arabidopsis PFN2; source: E. coli BL21 (DE3), pET28(a), purified (HisPur cobalt resin, imidazole elution; SEC)
Does B1 bind?
Result: binds
